Laboratory results from US20030077318A1.

Key:
[1] = target: T1, soluble H-2K^b (K^bsol), heterodimer of truncated K^b heavy chain and murine β-2 microglobulin, purified empty from Drosophila cells (murine), P01901; test: competitive RIA against [^125I]VSV-8 on K^bsol
T1 chain 1: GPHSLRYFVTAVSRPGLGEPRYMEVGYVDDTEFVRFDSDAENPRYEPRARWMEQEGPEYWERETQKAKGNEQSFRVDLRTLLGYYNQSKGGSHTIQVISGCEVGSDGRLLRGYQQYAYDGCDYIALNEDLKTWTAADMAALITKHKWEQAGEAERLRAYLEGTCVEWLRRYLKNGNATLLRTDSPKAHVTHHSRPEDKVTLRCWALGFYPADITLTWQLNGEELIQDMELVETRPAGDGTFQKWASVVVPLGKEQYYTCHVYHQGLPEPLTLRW
T1 chain 2: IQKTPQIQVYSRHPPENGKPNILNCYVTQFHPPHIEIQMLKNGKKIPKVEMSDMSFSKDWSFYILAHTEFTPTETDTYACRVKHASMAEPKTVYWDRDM

[2] = target: T1, soluble H-2K^b (K^bsol), heterodimer of …; test: competitive RIA against [^125I]VSV-8 on K^bsol, P30 gel filtration, 23° C.

EQLESIINFEKLTEWTSSNVMEER (modifications not checked) [OVA-24] was tested, and the fold lower affinity than OVA-8 [1] was > 10000 fold and the Kd [2] was 71 µM.
